As usually defined, the Kd is the equilibrium constant for the complex coming apart. Lower therefore signals tighter binding.

The values that follow come from article PMC4140777.

Data set [1] deals with T1, β-bungarotoxin (β-BuTx) (Bungarus multicinctus) (UniProt P00618+P00987). Description: fluorescence anisotropy. The note with it: 20 mM HEPES pH 7.4, 150 mM NaCl, 5 mM KCl, 2 mM MgCl2, 2 mM CaCl2, room temperature. (Polarisation of emitted light reports the rotation of a fluorescent probe.)
The target in data set [2] is T1, β-bungarotoxin (β-BuTx) (Bungarus multicinctus). Description: filter binding. The note with it: 20 mM HEPES pH 7.4, 150 mM NaCl, 5 mM KCl, 2 mM MgCl2, 2 mM CaCl2, room temperature.

T1 sequence (P00618 26-145, chain 1 of 2): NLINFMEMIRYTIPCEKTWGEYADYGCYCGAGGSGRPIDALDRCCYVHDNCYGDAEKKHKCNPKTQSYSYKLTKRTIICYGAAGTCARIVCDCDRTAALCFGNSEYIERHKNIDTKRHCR
T1 sequence (P00987 25-85, chain 2 of 2): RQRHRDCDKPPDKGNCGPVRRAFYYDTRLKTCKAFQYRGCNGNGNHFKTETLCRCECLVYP

Sequence “AGCAGCACAGAGGTCAGATGTTTGGTGTGGATCCTGAACATTTATATTCTTTCGTTTTTTCCTATGCGTGCTACCGTGAA [βB-19]” registered a Kd in data set [1] of 530 nM.

As for “AGCAGCACAGAGGTCAGATGATTAGTCATGTTTGTTTGTCTGGCTTTTTGGGTTTGTGCAGTATTATGAACCCTATGCGTGCTACCGTGAA [βB-20]”, the Kd in data set [1] stood at 83.8 nM.

As to “AGCAGCACAGAGGTCAGATGGCAATGCACCTTTGTCTCTTATAGTTTATTTTTTGCCTTCCTATGCGTGCTACCGTGAA [βB-32]”, the Kd in data set [1] amounted to 995 nM.

Sequence “AGCAGCACAGAGGTCAGATGGTTTTCCCCTTGTCGCTTTTGGTTCGTTCTGCCTCTATCTCCTATGCGTGCTACCGTGAA [βB-1]” returned a binding signal in data set [2] of 45 % bound. Besides, the Kd in data set [1] was 65.9 nM.
